{"source": "paper PMC4540119", "origin": "cited, not measured here", "key": {"[1]": {"molecular_target": "integrin α6β1 (Homo sapiens) (UniProt P23229)", "sequence (P23229 24-1050, chain 1 of 2)": "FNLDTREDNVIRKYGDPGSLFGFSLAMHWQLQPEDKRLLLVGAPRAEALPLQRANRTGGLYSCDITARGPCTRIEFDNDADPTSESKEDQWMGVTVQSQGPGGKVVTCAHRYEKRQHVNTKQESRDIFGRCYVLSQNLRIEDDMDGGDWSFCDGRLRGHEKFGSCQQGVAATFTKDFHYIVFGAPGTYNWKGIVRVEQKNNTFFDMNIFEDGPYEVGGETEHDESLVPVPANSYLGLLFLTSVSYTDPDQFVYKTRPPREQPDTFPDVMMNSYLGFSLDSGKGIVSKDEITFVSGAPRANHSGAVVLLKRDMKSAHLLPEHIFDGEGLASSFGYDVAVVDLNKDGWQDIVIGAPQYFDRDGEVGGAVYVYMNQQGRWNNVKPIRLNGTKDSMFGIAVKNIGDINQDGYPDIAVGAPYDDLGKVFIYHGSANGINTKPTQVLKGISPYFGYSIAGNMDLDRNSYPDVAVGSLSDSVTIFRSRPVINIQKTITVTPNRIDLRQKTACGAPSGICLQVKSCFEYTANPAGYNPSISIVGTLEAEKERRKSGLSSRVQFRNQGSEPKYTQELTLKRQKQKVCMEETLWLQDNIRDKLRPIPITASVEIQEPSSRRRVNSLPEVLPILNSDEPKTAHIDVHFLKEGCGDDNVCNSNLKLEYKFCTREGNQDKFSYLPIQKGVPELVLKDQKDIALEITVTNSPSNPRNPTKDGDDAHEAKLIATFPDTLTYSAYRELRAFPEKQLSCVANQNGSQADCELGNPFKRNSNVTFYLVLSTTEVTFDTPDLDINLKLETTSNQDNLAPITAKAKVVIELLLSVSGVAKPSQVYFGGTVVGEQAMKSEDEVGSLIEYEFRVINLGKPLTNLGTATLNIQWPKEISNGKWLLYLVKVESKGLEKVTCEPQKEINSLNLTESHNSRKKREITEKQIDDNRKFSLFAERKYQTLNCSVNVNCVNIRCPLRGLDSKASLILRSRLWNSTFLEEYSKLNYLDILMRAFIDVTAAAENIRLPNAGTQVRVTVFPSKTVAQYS", "sequence (P05556 21-728, chain 2 of 2, further chain)": "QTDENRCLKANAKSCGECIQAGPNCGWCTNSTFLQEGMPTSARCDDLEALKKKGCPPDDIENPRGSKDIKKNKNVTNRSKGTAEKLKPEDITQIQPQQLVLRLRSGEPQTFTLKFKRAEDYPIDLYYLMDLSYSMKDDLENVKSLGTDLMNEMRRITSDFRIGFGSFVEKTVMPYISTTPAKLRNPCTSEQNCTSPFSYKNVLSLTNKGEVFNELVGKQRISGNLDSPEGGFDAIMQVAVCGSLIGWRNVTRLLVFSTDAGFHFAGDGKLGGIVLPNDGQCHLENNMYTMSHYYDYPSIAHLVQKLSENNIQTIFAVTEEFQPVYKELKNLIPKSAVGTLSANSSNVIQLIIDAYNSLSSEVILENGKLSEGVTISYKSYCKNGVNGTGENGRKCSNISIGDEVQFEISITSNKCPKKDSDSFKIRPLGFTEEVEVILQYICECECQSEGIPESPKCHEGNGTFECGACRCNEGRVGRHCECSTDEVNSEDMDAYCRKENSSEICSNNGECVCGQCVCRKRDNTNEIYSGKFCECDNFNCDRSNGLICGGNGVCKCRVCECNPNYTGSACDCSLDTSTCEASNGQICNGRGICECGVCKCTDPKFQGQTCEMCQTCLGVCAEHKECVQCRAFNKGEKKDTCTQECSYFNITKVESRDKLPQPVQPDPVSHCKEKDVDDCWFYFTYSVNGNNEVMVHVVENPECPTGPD"}, "[2]": {"molecular_target": "integrin α6β1 (Homo sapiens) (UniProt P23229)", "remark": "listed apart in the source"}}, "note": "Like-named read-outs stand apart in the source and are kept apart here."}
{"substance": "laminin-111 (from UniProt P25391)", "values": [{"measurement": "Kd", "setting": "[1]", "value": 9.5, "unit": "nM"}]}
{"substance": "laminin-521 (from UniProt O15230)", "values": [{"measurement": "Kd", "setting": "[2]", "value": 0.72, "unit": "nM"}]}
